T1: IL1RAP on H1975 cells (human, UniProt Q9NPH3 21-570)
T1 construct: whole, on cells; also called ILIRAP; H1975 tumor cell line expressing ILIRAP
T1 sequence (looked up): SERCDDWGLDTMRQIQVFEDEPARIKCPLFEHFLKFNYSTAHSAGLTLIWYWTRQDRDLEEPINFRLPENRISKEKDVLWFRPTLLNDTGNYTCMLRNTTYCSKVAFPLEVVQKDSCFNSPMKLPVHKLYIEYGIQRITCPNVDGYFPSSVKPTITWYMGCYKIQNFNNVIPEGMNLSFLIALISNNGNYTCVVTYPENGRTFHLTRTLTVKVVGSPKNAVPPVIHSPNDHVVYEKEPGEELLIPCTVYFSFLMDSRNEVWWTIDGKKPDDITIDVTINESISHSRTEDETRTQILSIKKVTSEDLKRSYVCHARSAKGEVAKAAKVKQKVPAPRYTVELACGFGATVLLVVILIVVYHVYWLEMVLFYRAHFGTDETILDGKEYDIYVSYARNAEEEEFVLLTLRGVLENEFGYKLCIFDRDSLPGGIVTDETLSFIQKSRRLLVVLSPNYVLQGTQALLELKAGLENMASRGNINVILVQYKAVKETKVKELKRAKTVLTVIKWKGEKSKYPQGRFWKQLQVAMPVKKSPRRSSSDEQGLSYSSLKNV

B1: Vβ17/Null (bispecific antibody, human IgG4 S228P, kappa, F234A L235A)
Vβ17 half antibody (B17B21; light chain, linker and heavy chain in one polypeptide): DIQMTQSPSSLSASVGDRVTITCRSSQSLVHSNGNTYLHWYQQKPGKAPKFLIYKVSNRFSGVPSRFSGSGSGTDFTLTISSLQPEDFATYYCSQSTHVPFTFGQGTKLEIKRTVAAPSVFIFPPSDEQLKSGTASVVCLLNNFYPREAKVQWKVDNALQSGNSQESVTEQDSKDSTYSLSSTLTLSKADYEKHKVYACEVTHQGLSSPVTKSFNRGECGGSEGKSSGSGSESKSTEGKSSGSGSESKSTGGSQVQLQESGPGLVKPSETLSLTCTVSGYSITSGYFWNWIRQPPGKGLEWIGYISYDGSNNYNPSLKSRVTISRDTSKNQFSLKLSSVTAADTAVYYCASPSPGTGYAVDYWGQGTLVTVSSASTKGPSVFPLAPCSRSTSESTAALGCLVKDYFPEPVTVSWNSGALTSGVHTFPAVLQSSGLYSLSSVVTVPSSSLGTKTYTCNVDHKPSNTKVDKRVESKYGPPCPPCPAPEAAGGPSVFLFPPKPKDTLMISRTPEVTCVVVDVSQEDPEVQFNWYVDGVEVHNAKTKPREEQFNSTYRVVSVLTVLHQDWLNGKEYKCKVSNKGLPSSIEKTISKAKGQPREPQVYTLPPSQEEMTKNQVSLSCAVKGFYPSDIAVEWESNGQPENNYKTTPPVLDSDGSFFLVSRLTVDKSRWQEGNVFSCSVMHEALHNRFTQKSLSLSLGK
null half antibody (B23B49; light chain, linker and heavy chain in one polypeptide): not shown
notes: also called Vβ17/NULL arm control bispecific antibody; Vβ17XNULL
B2: Vβ17/IL1RAP bispecific antibody (bispecific antibody, human IgG4 S228P, kappa, lambda, F234A L235A)
chain 1: B1 Vβ17 half antibody (B17B21; light chain, linker and heavy chain in one polypeptide)
chain 2: QSALTQPRSVSGSPGHSVTISCTGTSSDVGDYNYVSWYQQRPGKVPKLLIYDVSKRPSGVPDRFSGSKSGNTASLTISGLQAEDEAIYFCASYAGNYNVVFGGGTKLTVLGQPKAAPSVTLFPPSSEELQANKATLVCLISDFYPGAVTVAWKADSSPVKAGVETTTPSKQSNNKYAASSYLSLTPEQWKSHRSYSCQVTHEGSTVEKTVAPTECSGGSEGKSSGSGSESKSTEGKSSGSGSESKSTGGSQVQLVQSGSELKKPGASVKVSCKASGYTFNTYAMNWVRQAPGQGLEWMGWINTNTGNPTYAQGFTGRFVFSLDTSVSTAYLQISSLKAEDTAVYYCARRYFDWLLGAFDIWGQGTMVTVSSASTKGPSVFPLAPCSRSTSESTAALGCLVKDYFPEPVTVSWNSGALTSGVHTFPAVLQSSGLYSLSSVVTVPSSSLGTKTYTCNVDHKPSNTKVDKRVESKYGPPCPPCPAPEAAGGPSVFLFPPKPKDTLMISRTPEVTCVVVDVSQEDPEVQFNWYVDGVEVHNAKTKPREEQFNSTYRVVSVLTVLHQDWLNGKEYKCKVSNKGLPSSIEKTISKAKGQPREPQVYTLPPSQEEMTKNQVSLWCLVKGFYPSDIAVEWESNGQPENNYKTTPPVLDSDGSFFLYSRLTVDKSRWQEGNVFSCSVMHEALHNHYTQKSLSLSLGK
notes: also called Vβ17XIL1RAP

Experiments:
[1] = target: T2, Vβ17 (TRBV19) T cell receptor on Vβ17+CD8+ T cells (human); experiment: flow cytometry on M1 peptide expanded CD8+ T cells, PE anti-human IgG4 secondary, % binding; bottom right panel, second EC50 line, square curve (right of the circles)
T2 construct: whole, on cells; also called Vβ17+ T cells
T2 sequence (A0A075B6N1 22-114): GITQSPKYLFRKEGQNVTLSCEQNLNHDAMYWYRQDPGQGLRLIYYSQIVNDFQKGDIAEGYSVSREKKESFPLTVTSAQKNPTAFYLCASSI
Method: (§1) Binding of Vβ17 bispecific antibodies to its respective tumor associated antigen (TAA) expressing cell line and CD8+ T cells was carried out by flow cytometry. Briefly, 50,000 target cells or CD8+ T cells were incubated at 4° C. for 45 minutes with serial dilutions of various bispecific antibodies or its null arm control bispecific antibodies. After washing with wash buffer (PBS+2% FBS), bispecific antibody bound to cell surface was detected by incubating the cells with PE labelled mouse anti human IgG4 secondary antibody (SouthernBiotech, Birmingham, AL) for 30 minutes at 4° C. Cells were washed with wash buffer (PBS+2% FBS) and the fluorescence of stained cells was measured on Novocyte flow cytometer. Cells were visualized on forward and sideward scatter and doublets were excluded. No secondary antibody control was used to establish background fluorescence and to gate on specific population. Background value was subtracted from main samples to get specific binding value. […] For all binding assays, tumor associated antigen (TAA) expression on cell lines and the abundance of Vβ17+ cells among Pan-T cells or CD8+ T cells were assessed by staining them with specific monoclonal antibody.
(§2) Mouse anti-human IgG4 Fc-PE secondary antibody was used to detect the bispecific antibody using FACS method.

[2] = target: T2, Vβ17 (TRBV19) T cell receptor on …; experiment: flow cytometry on M1 peptide expanded CD8+ T cells, PE anti-human IgG4 secondary, % binding; bottom middle panel, second EC50 line, square curve (right of the circles)
Method: as §1, §2

[3] = target: T2, Vβ17 (TRBV19) T cell receptor on …; experiment: flow cytometry on total (Vβ17 non-depleted) CD8+ T cells from PBMCs, % binding
Method: as §1

CD123 on Kasumi-3 cells = target: T3, CD123 on Kasumi-3 cells (UniProt P26951 19-378, limits assumed); experiment: flow cytometry on Kasumi-3 cells, % binding; top left panel
T3 construct: whole, on cells; also called tumor associated antigen (TAA) on Kasumi-3
T3 sequence (P26951 19-378 limits assumed): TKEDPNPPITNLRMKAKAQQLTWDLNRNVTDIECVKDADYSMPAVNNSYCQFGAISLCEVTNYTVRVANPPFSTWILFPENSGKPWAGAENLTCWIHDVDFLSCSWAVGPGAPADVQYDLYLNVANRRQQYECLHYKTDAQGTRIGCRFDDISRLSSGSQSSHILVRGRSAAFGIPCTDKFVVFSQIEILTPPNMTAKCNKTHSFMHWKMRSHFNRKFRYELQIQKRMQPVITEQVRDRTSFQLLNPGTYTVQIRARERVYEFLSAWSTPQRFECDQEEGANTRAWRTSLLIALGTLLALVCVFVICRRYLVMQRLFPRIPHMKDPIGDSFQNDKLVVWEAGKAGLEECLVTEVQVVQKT

PSMA on 22Rv1 cells = target: T4, PSMA on 22Rv1 cells (human, UniProt Q04609 1-750); experiment: flow cytometry on 22Rv1 cells, % binding; top middle panel
T4 construct: whole, on cells; also called 22Rv1 tumor cell line expressing PSMA
T4 sequence (Q04609 whole entry): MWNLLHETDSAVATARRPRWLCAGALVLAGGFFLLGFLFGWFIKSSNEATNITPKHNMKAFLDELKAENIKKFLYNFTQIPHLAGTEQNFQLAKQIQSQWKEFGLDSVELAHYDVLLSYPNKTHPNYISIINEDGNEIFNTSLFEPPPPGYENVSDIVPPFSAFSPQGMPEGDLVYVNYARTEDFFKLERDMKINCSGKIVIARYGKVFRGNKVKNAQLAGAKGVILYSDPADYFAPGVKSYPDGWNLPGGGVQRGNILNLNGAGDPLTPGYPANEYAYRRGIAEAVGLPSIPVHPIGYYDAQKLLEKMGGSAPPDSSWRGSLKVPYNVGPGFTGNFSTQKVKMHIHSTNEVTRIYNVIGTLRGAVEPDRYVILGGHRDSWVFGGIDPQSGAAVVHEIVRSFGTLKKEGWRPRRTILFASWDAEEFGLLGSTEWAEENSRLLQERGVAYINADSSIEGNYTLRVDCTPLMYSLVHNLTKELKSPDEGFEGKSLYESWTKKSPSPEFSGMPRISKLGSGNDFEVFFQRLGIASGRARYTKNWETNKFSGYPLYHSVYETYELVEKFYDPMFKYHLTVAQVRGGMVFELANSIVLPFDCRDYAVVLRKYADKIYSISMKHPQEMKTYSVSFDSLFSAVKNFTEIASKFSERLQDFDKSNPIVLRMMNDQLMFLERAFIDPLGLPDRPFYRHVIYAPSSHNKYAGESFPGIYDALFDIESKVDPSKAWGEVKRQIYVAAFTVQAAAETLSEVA

[4] = target: T2, Vβ17 (TRBV19) T cell receptor on …; experiment: flow cytometry on M1 peptide expanded CD8+ T cells, PE anti-human IgG4 secondary, % binding; bottom left panel, second EC50 line, square curve (right of the circles)
Method: as §1, §2

IL1RAP on H1975 cells [5] = target: T1, IL1RAP on H1975 cells; experiment: flow cytometry on H1975 cells, % binding; top right panel
[6] = target: T2, Vβ17 (TRBV19) T cell receptor on …; experiment: flow cytometry on M1 peptide expanded CD8+ T cells, PE anti-human IgG4 secondary, % binding; bottom right panel, first EC50 line, circle curve (left of the squares)
Method: as §1, §2

IL1RAP on H1975 cells [7] = target: T1, IL1RAP on H1975 cells; experiment: flow cytometry on H1975 cells expressing IL1RAP, detected with anti-human IgG4 Fc-PE
Method: as §1

[8] = target: T2, Vβ17 (TRBV19) T cell receptor on …; experiment: flow cytometry on enriched M1 peptide-stimulated CD8+ T cells (day 14), frequency of positive cells, anti-human IgG4 Fc-PE
Method: as §1, §2

Row | Binder | EC50 [1] [nM] | EC50 [2] [nM] | EC50 (read off the curve) [3] [mg/L] | binding result (CD123 on Kasumi-3 cells) | binding result (PSMA on 22Rv1 cells) | EC50 [4] [nM] | binding result (IL1RAP on H1975 cells [5]) | EC50 [6] [nM] | EC50 (IL1RAP on H1975 cells [7]) [nM] | EC50 [8] [nM]
1 | B1 | 2.8 | 3.75 | ~0.3 | no binding (tested: about 5 µg/mL) | no binding (tested: 10 µg/mL) | 2.4 | no binding (tested: about 30 µg/mL) |  |  | 
2 | B2 |  |  |  |  |  |  |  | 0.33 | 11.3 | 2.8
